molecular target: KHK4083; assay: BLI; details: 100 nmol/L KHK4083; parent: est. 1.0; read off a plot

Row | Substance | ratio to parent
1 | Recombinant OX40-His protein (human OX40) (from UniProt P43489) D34A | 0.8
2 | Recombinant OX40-His protein (human OX40) (from UniProt P43489) D40A | 2
3 | Recombinant OX40-His protein (human OX40) (from UniProt P43489) D117A | 28
4 | Recombinant OX40-His protein (human OX40) (from UniProt P43489) H30A | 0.6
5 | Recombinant OX40-His protein (human OX40) (from UniProt P43489) K82A | 15
6 | Recombinant OX40-His protein (human OX40) (from UniProt P43489) K120A | 16
7 | Recombinant OX40-His protein (human OX40) (from UniProt P43489) S38A | 1
8 | Recombinant OX40-His protein (human OX40) (from UniProt P43489) S118A | 6.4
9 | Recombinant OX40-His protein (human OX40) (from UniProt P43489) T35A | 0.6
10 | Recombinant OX40-His protein (human OX40) (from UniProt P43489) Y36A | 1.6
11 | Recombinant OX40-His protein (human OX40) (from UniProt P43489) Y119A | 21

Source: publication PMC12102438
